For three substances, % activity results are on record in patent publication US20150064134A1.

Some targets named below: JNK2α2(h) (human) (UniProt P45984); EphB4(h) (human) (UniProt P54760); CaMKIIβ(h) (human) (UniProt Q13554); WNK2(h) (human) (UniProt Q9Y3S1); MSK1(h) (human) (UniProt O75582); TrkB (h) (human) (UniProt Q16620); FGFR4(h) (human) (UniProt P22455); EGFR(L861Q)(h) (human) (UniProt P00533); DMPK(h) (human) (UniProt Q09013).
Holding throughout (test): cell-based or functional assay
For test [1], the target named is CDK7/cyclinH/MAT1(h) (human) (UniProt P50613).
The next test deals with T1, SGK3(h) (human) (UniProt Q96BR1).
T1 sequence (looked up): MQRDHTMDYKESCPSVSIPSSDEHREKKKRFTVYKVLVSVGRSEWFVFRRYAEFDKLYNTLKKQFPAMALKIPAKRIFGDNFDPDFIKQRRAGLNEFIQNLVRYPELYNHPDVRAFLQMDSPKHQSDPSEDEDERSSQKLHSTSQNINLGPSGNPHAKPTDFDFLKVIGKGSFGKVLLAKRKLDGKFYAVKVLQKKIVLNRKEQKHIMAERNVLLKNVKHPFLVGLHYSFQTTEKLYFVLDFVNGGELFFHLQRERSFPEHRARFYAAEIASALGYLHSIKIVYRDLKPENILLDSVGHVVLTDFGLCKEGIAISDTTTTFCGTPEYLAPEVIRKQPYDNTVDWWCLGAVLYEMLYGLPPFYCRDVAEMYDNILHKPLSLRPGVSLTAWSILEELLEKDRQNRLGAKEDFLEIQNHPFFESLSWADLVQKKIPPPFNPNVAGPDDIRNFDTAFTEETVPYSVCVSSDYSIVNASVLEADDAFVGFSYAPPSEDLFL

The target of a further test is T2, Ret(h) (human) (UniProt P07949).
T2 sequence (looked up): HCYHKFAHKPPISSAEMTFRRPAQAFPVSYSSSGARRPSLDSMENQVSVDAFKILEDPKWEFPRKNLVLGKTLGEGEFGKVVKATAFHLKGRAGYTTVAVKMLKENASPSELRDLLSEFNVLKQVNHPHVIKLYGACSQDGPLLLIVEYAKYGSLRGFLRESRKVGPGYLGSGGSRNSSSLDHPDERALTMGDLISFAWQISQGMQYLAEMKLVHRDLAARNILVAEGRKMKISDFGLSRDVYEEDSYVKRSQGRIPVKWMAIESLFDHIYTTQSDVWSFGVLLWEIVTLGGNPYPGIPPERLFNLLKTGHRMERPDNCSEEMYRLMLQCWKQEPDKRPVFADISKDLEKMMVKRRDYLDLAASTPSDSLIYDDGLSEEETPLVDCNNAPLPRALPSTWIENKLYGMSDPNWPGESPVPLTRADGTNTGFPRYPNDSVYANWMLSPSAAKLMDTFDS

The next test deals with T3, ULK2(h) (human) (UniProt Q8IYT8).
T3 sequence (looked up): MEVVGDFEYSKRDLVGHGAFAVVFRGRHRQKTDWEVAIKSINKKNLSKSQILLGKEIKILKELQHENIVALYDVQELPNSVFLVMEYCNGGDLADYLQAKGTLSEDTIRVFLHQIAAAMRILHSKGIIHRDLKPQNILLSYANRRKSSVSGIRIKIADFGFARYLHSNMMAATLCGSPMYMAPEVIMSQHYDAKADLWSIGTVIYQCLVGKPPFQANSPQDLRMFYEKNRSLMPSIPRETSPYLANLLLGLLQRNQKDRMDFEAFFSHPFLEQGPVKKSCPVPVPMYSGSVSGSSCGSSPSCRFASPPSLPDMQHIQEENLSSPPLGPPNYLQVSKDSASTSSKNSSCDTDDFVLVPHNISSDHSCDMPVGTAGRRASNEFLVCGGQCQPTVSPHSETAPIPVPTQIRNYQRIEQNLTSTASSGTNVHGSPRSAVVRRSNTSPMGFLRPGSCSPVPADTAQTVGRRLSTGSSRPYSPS

In a further test the target is T4, EphA8(h) (human) (UniProt P29322).
T4 sequence (looked up): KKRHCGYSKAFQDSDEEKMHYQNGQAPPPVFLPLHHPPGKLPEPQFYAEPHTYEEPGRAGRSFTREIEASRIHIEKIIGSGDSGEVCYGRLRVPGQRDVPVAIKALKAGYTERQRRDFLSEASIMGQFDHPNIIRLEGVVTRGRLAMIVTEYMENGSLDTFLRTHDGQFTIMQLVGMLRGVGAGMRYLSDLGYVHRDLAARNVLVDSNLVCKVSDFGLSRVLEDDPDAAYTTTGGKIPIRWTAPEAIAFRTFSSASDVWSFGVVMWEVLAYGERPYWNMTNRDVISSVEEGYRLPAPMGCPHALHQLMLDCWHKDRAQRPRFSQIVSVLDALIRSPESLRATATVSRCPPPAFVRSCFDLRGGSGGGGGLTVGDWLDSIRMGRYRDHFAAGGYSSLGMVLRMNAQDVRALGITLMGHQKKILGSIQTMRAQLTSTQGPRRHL

Another test concerns the target T5, PDK1(h) (human) (UniProt O15530).
T5 sequence (looked up): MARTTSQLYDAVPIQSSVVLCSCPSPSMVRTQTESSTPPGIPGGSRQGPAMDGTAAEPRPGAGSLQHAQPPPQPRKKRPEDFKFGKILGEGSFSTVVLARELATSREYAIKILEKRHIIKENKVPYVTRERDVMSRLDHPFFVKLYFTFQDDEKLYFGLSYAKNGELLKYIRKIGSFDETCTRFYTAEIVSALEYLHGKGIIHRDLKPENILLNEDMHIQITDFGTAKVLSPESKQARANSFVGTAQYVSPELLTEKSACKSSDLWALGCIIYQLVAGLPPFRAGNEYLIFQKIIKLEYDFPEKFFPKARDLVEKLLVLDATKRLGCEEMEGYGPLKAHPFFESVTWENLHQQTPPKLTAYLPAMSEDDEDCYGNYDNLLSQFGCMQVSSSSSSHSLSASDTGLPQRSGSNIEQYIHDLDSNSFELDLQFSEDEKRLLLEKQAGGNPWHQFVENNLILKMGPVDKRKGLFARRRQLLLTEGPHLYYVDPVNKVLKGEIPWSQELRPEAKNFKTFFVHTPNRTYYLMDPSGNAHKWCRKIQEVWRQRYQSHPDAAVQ

Sequence of EphB4(h) (human) (P54760 561-987 limits assumed): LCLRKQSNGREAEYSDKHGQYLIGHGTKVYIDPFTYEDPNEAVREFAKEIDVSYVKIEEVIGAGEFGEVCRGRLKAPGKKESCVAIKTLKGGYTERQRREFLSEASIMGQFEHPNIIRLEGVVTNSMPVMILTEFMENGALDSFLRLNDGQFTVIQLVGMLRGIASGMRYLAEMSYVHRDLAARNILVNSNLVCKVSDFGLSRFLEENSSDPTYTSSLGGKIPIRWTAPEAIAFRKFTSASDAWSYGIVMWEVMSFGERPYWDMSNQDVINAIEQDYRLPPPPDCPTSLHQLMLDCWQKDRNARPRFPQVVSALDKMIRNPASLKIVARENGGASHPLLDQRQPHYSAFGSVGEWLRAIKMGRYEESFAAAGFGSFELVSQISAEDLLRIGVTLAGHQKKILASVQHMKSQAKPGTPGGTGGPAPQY
Sequence of FGFR4(h) (human) (P22455 442-753 limits assumed): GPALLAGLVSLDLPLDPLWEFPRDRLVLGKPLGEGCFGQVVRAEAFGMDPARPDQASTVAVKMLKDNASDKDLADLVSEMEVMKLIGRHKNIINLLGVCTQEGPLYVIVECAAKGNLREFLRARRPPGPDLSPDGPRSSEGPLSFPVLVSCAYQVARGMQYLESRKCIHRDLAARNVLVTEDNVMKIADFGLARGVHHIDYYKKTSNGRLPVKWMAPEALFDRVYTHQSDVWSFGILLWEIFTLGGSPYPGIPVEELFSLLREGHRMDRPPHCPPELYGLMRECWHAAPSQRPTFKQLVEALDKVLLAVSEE
Sequence of CDK7/cyclinH/MAT1(h) (human) (P50613 whole entry, chain 1 of 3): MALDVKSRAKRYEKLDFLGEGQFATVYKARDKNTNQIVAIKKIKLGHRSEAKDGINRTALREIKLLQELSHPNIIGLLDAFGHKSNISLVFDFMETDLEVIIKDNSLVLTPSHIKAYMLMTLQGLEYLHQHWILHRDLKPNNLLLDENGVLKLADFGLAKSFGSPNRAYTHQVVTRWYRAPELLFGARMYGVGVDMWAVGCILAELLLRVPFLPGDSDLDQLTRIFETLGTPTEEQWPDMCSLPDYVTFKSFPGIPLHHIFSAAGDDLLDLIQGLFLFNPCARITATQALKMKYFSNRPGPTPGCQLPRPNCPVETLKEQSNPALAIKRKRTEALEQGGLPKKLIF
Sequence of CDK7/cyclinH/MAT1(h) (human) (P51946 whole entry, chain 2 of 3, further chain): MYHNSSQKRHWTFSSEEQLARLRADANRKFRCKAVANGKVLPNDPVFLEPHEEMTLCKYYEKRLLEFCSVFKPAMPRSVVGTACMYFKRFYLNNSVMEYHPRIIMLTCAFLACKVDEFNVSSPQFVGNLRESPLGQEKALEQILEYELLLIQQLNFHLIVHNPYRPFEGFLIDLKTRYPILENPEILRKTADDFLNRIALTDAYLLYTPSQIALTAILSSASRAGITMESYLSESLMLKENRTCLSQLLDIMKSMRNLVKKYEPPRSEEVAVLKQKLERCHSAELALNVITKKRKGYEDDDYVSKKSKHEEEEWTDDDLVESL
Sequence of CDK7/cyclinH/MAT1(h) (human) (P51948 whole entry, chain 3 of 3, further chain): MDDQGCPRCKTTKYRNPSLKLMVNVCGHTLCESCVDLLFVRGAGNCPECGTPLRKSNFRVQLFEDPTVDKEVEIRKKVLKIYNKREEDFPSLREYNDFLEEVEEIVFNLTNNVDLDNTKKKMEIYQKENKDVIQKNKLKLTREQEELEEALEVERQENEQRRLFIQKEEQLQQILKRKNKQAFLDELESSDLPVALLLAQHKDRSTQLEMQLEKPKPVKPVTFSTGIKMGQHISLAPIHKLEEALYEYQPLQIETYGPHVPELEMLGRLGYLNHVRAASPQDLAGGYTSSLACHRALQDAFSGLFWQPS
Sequence of CaMKIIβ(h) (human) (Q13554 whole entry): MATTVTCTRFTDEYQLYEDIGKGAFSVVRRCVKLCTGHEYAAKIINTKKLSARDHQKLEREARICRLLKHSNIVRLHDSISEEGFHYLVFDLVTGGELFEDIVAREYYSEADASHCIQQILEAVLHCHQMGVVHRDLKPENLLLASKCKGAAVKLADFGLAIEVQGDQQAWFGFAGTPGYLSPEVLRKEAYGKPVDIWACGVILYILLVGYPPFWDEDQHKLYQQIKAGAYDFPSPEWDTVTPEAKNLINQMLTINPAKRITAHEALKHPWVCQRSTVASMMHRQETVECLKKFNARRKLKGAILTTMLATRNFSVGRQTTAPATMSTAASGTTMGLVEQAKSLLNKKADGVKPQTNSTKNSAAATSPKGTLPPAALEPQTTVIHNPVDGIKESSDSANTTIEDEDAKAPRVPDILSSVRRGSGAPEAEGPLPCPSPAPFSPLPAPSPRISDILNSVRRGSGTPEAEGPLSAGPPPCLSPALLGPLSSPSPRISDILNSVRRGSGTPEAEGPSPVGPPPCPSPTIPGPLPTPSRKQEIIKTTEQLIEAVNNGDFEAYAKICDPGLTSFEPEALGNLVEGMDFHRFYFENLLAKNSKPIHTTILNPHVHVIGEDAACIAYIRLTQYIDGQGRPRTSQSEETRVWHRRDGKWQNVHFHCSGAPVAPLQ

As to MMI-0500 (peptide), the % activity at 100 µM is 81% in the test with JNK2α2(h) (human); 38% with EphB4(h) (human); 15% in test [1]; 3% with CaMKIIβ(h) (human); -3% with SGK3(h) (human); 8% with WNK2(h) (human). In addition, the % activity at 100 µM with Ret(h) (human) came out at 174%; in the test with MSK1(h) (human) it was 8%; in the test with ULK2(h) (human), 124%; in the test with TrkB (h) (human), 12%; with FGFR4(h) (human), 3%; with EphA8(h) (human) it was 337%. The % activity at 100 µM with EGFR(L861Q)(h) (human) was found to be 15%; with PDK1(h) (human), 178%; with DMPK(h) (human), 12%.

Take MMI-0300 (peptide): the % activity at 100 µM with JNK2α2(h) (human) came to 98%; with EphB4(h) (human), 44%; in test [1], 65%; in the test with CaMKIIβ(h) (human) it was 2%; in the test with SGK3(h) (human), 10%; with WNK2(h) (human), 64%. The % activity at 100 µM stood at 140% with Ret(h) (human); 32% with MSK1(h) (human); 122% in the test with ULK2(h) (human); 5% in the test with TrkB (h) (human); 28% with FGFR4(h) (human); 93% in the test with EphA8(h) (human). In addition, the % activity at 100 µM turned out to be 25% with EGFR(L861Q)(h) (human), 135% with PDK1(h) (human) and 59% with DMPK(h) (human).

Turning to MMI-0400 (peptide), the % activity at 100 µM with JNK2α2(h) (human) was determined as 96%; in the test with EphB4(h) (human) it was 28%; in test [1], 47%; with CaMKIIβ(h) (human), 11%; with SGK3(h) (human) it was 8%; with WNK2(h) (human), 54%. Besides, the % activity at 100 µM worked out at 145% with Ret(h) (human); 28% in the test with MSK1(h) (human); 131% with ULK2(h) (human); 8% with TrkB (h) (human); 19% in the test with FGFR4(h) (human); 146% with EphA8(h) (human). Besides, the % activity at 100 µM in the test with EGFR(L861Q)(h) (human) was 22%; with PDK1(h) (human), 159%; with DMPK(h) (human), 54%.
